US20150165065A1 (AVIDBIOTICS, published 2015)

Assays:
integrin αVβ3 = target: T1, integrin αVβ3 (UniProt P06756 31-992; P05106 27-718); experiment: ELISA, coated integrin, anti-MICA-HRP
T1 construct: Coated on the ELISA plate
Procedure: (§1) The ability of the soluble MICA molecules in each of the concentrated supernatants to bind target molecules was assayed by an ELISA using the intended target proteins, integrin αVβ3 or αVβ5, as capture agents on the ELISA plate. After the respective integrins were adhered to the bottoms of the wells of the ELISA plate, the wells were washed and blocked, as well known in the field. Each sample (100 μl) of soluble MICA produced and secreted by 293T cells was added to wells containing αVβ3 or αVβ5, incubated and washed. The soluble MICA molecules captured by the integrins were detected by HRP-conjugated antibody to human MICA developed with Ultra TMB-ELISA substrate and the optical densities read. The quantity of soluble MICA in each sample was determined by the MICA-specific ELISA. […] The ELISA signal from a non-binding, negative control MICA (generated by pSW273) was subtracted from each integrin binding signal.

integrin αVβ5 = target: T2, integrin αVβ5 (UniProt P06756 31-992; P18084 24-719); experiment: ELISA, coated integrin, anti-MICA-HRP
T2 construct: Coated on the ELISA plate
Procedure: as §1

T1 sequence (P06756 31-992, chain 1 of 2): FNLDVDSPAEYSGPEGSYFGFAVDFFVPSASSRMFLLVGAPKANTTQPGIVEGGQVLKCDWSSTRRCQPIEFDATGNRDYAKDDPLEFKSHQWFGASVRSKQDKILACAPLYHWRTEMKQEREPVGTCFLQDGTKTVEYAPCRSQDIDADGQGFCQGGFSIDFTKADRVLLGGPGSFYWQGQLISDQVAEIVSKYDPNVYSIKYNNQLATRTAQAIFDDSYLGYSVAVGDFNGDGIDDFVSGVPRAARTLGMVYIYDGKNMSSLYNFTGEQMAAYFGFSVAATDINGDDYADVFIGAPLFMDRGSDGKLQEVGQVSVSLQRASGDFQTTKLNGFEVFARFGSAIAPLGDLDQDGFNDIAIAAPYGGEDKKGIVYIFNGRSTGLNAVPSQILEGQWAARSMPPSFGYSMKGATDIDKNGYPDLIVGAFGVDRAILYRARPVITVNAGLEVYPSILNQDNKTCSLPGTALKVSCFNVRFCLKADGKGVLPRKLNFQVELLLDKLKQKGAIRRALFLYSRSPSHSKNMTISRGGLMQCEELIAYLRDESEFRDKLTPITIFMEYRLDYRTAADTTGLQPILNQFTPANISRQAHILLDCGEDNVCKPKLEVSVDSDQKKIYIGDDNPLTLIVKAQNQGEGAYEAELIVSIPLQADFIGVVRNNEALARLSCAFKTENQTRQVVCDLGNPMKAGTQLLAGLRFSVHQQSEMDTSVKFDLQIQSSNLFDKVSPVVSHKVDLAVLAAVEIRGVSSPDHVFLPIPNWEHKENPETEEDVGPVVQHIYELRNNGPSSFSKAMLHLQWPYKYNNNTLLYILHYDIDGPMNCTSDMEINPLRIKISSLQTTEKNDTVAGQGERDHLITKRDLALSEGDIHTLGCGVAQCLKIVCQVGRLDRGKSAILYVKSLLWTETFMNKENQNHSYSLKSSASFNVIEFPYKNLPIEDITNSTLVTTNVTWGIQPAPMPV
T1 sequence (P05106 27-718, chain 2 of 2): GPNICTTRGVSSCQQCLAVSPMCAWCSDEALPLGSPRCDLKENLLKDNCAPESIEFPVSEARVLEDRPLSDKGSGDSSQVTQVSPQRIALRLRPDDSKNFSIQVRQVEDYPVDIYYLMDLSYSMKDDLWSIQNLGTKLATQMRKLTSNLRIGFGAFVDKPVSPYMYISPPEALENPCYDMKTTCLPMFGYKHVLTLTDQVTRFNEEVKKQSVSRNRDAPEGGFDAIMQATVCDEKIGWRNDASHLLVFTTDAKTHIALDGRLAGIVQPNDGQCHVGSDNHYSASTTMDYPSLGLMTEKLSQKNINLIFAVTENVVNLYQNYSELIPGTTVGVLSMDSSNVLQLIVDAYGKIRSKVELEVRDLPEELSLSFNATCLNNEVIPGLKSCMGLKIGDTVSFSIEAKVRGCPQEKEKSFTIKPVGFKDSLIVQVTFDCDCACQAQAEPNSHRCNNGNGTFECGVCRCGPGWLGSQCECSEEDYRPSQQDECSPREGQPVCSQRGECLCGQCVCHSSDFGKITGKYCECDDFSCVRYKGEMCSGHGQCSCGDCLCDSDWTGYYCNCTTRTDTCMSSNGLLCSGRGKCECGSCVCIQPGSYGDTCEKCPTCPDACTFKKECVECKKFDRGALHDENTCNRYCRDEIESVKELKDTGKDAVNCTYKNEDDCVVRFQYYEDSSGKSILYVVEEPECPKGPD
T2 sequence (P06756 31-992, chain 1 of 2): as the sequence (P06756 31-992, chain 1 of 2) above
T2 sequence (P18084 24-719, chain 2 of 2): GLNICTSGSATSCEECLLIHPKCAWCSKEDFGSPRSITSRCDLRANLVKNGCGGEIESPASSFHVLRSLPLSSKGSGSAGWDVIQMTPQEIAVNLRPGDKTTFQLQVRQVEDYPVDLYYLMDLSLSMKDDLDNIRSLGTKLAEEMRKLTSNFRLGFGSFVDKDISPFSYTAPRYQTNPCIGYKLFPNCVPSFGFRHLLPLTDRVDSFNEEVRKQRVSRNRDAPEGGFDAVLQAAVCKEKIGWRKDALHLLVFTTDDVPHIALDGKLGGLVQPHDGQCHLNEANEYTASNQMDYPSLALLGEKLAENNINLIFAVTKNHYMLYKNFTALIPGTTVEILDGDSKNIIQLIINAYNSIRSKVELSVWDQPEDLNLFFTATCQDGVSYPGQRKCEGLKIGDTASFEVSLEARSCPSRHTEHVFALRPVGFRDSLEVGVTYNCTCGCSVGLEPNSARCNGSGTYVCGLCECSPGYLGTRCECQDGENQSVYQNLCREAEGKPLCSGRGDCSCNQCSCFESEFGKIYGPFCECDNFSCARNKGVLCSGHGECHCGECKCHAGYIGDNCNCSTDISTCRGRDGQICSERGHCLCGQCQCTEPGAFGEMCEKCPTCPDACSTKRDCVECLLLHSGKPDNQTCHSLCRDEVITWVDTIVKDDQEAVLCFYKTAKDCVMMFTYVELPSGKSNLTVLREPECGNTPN

αvβ3 signal (integrin αVβ3) [OD] | αvβ3 signal/ng (integrin αVβ3) [signal/ng MICA] | αvβ5 signal (integrin αVβ5) [OD] | αvβ5 signal/ng (integrin αVβ5) [signal/ng MICA] | Binder
0.516 | 17.7 | 0.65 | 22.4 | soluble MICA generated from pKK41 (loop 1 insert 5.2) (designed binder, From pKK34 (His6, Glu125); secreted by 293T cells; also called 1-5.2) HHHHHHEPHSLRYNLTVLSWDGSVQSGFLTEVHLDGQPFLRCDRQKCRAKPQGQWAEDVLGNKTWDRETRDLTGNGKDLRMTLAHIKDQKEGLHSLQEIRVCEIHEDNSTRSSQHFYYDGELFLSQNLETEEWTMPQSSRAQTLAMNVRNFLKEDAMKTKTHYHAMHADCLQELRRYLKSGVVLRRTVPPMVNVTRGDTFTQSVTCRASGFYPWNITLSWRQDGVSLSHDTQQWGDVLPDGNGTYQTWVATRICQGEEQRFTCYMEHSGNHSTHPVPSGK
0.291 | 30.7 | 0.291 | 30.7 | soluble MICA generated from pKK38 (loop 1 insert 3.3) (designed binder, From pKK34 (His6, Glu125); secreted by 293T cells; also called 1-3.3) HHHHHHEPHSLRYNLTVLSWDGSVQSGFLTEVHLDGQPFLRCDRQKCRAKPQGQWAEDVLGNKTWDRETRDLTGNGKDLRMTLAHIKDQKEGLHSLQEIRVCEIHEDNSTRSSQHFYYDGELFLSQNLETEEWTMPQSSRAQTLAMNVRNFLKEDAMKTKTHYHAMHADCLQELRRYLKSGVVLRRTVPPMVNVTRVPRGDSDLTVTCRASGFYPWNITLSWRQDGVSLSHDTQQWGDVLPDGNGTYQTWVATRICQGEEQRFTCYMEHSGNHSTHPVPSGK
0.485 | 19.5 | 0.675 | 27.1 | soluble MICA generated from pKK40 (loop 1 insert 5.1) (designed binder, From pKK34 (His6, Glu125); secreted by 293T cells; also called 1-5.1) HHHHHHEPHSLRYNLTVLSWDGSVQSGFLTEVHLDGQPFLRCDRQKCRAKPQGQWAEDVLGNKTWDRETRDLTGNGKDLRMTLAHIKDQKEGLHSLQEIRVCEIHEDNSTRSSQHFYYDGELFLSQNLETEEWTMPQSSRAQTLAMNVRNFLKEDAMKTKTHYHAMHADCLQELRRYLKSGVVLRRTVPPMVNVTVTRGDTFTQSVTCRASGFYPWNITLSWRQDGVSLSHDTQQWGDVLPDGNGTYQTWVATRICQGEEQRFTCYMEHSGNHSTHPVPSGK
0.526 | 21.2 | 0.565 | 22.8 | soluble MICA generated from pKK42 (loop 1 insert 5.3) (designed binder, From pKK34 (His6, Glu125); secreted by 293T cells; also called 1-5.3) HHHHHHEPHSLRYNLTVLSWDGSVQSGFLTEVHLDGQPFLRCDRQKCRAKPQGQWAEDVLGNKTWDRETRDLTGNGKDLRMTLAHIKDQKEGLHSLQEIRVCEIHEDNSTRSSQHFYYDGELFLSQNLETEEWTMPQSSRAQTLAMNVRNFLKEDAMKTKTHYHAMHADCLQELRRYLKSGVVLRRTVPPMVNVTHLARGDDLTYVTCRASGFYPWNITLSWRQDGVSLSHDTQQWGDVLPDGNGTYQTWVATRICQGEEQRFTCYMEHSGNHSTHPVPSGK
0.482 | 18 | 0.528 | 19.7 | soluble MICA generated from pKK39 (loop 1 insert 3.4) (designed binder, From pKK34 (His6, Glu125); secreted by 293T cells; also called 1-3.4) HHHHHHEPHSLRYNLTVLSWDGSVQSGFLTEVHLDGQPFLRCDRQKCRAKPQGQWAEDVLGNKTWDRETRDLTGNGKDLRMTLAHIKDQKEGLHSLQEIRVCEIHEDNSTRSSQHFYYDGELFLSQNLETEEWTMPQSSRAQTLAMNVRNFLKEDAMKTKTHYHAMHADCLQELRRYLKSGVVLRRTVPPMVNVTRSARGDSDHRVTCRASGFYPWNITLSWRQDGVSLSHDTQQWGDVLPDGNGTYQTWVATRICQGEEQRFTCYMEHSGNHSTHPVPSGK
0.777 | 22.4 | 0.779 | 22.4 | soluble MICA generated from pKK37 (loop 1 insert 3.2) (designed binder, From pKK34 (His6, Glu125); secreted by 293T cells; also called 1-3.2) HHHHHHEPHSLRYNLTVLSWDGSVQSGFLTEVHLDGQPFLRCDRQKCRAKPQGQWAEDVLGNKTWDRETRDLTGNGKDLRMTLAHIKDQKEGLHSLQEIRVCEIHEDNSTRSSQHFYYDGELFLSQNLETEEWTMPQSSRAQTLAMNVRNFLKEDAMKTKTHYHAMHADCLQELRRYLKSGVVLRRTVPPMVNVTRTSRGDHPRTQVTCRASGFYPWNITLSWRQDGVSLSHDTQQWGDVLPDGNGTYQTWVATRICQGEEQRFTCYMEHSGNHSTHPVPSGK
0.478 | 6.08 | 0.604 | 7.68 | soluble MICA generated from pKK48 (loop 3 insert extended 3.2sp) (designed binder, From pSW276 (no N-terminal His tag, Lys125); secreted by 293T cells; also called 3-3.2sp) EPHSLRYNLTVLSWDGSVQSGFLTEVHLDGQPFLRCDRQKCRAKPQGQWAEDVLGNKTWDRETRDLTGNGKDLRMTLAHIKDQKEGLHSLQEIRVCEIHEDNSTRSSQHFYYDGELFLSQNLETKEWTMPQSSRAQTLAMNVRNFLKEDAMKTKTHYHAMHADCLQELRRYLKSGVVLRRTVPPMVNVTRSEASEGNITVTCRASGFYPWNITLSWRQDGVSLSHDTQQWGDVLPDGNGTYQTWVATRISGGSGGGSTSRGDHPRTQSGGSGGGCYMEHSGNHSTHPVPSGK
0.546 | 5.85 | 0.721 | 7.73 | soluble MICA generated from pKK50 (loop 3 insert extended 5.1sp) (designed binder, From pSW276 (no N-terminal His tag, Lys125); secreted by 293T cells; also called 3-5.1sp) EPHSLRYNLTVLSWDGSVQSGFLTEVHLDGQPFLRCDRQKCRAKPQGQWAEDVLGNKTWDRETRDLTGNGKDLRMTLAHIKDQKEGLHSLQEIRVCEIHEDNSTRSSQHFYYDGELFLSQNLETKEWTMPQSSRAQTLAMNVRNFLKEDAMKTKTHYHAMHADCLQELRRYLKSGVVLRRTVPPMVNVTRSEASEGNITVTCRASGFYPWNITLSWRQDGVSLSHDTQQWGDVLPDGNGTYQTWVATRISGGSGGGSVTRGDTFTQSSGGSGGGCYMEHSGNHSTHPVPSGK
0.508 | 5.86 | 0.478 | 5.51 | soluble MICA generated from pKK49 (loop 3 insert extended 3.3sp) (designed binder, From pSW276 (no N-terminal His tag, Lys125); secreted by 293T cells; also called 3-3.3sp) EPHSLRYNLTVLSWDGSVQSGFLTEVHLDGQPFLRCDRQKCRAKPQGQWAEDVLGNKTWDRETRDLTGNGKDLRMTLAHIKDQKEGLHSLQEIRVCEIHEDNSTRSSQHFYYDGELFLSQNLETKEWTMPQSSRAQTLAMNVRNFLKEDAMKTKTHYHAMHADCLQELRRYLKSGVVLRRTVPPMVNVTRSEASEGNITVTCRASGFYPWNITLSWRQDGVSLSHDTQQWGDVLPDGNGTYQTWVATRISGGSGGGSRVPRGDSDLTSGGSGGGCYMEHSGNHSTHPVPSGK
0.694 | 7.2 | 1.05 | 10.9 | soluble MICA generated from pKK51 (loop 3 insert extended 5.3sp) (designed binder, From pSW276 (no N-terminal His tag, Lys125); secreted by 293T cells; also called 3-5.3sp) EPHSLRYNLTVLSWDGSVQSGFLTEVHLDGQPFLRCDRQKCRAKPQGQWAEDVLGNKTWDRETRDLTGNGKDLRMTLAHIKDQKEGLHSLQEIRVCEIHEDNSTRSSQHFYYDGELFLSQNLETKEWTMPQSSRAQTLAMNVRNFLKEDAMKTKTHYHAMHADCLQELRRYLKSGVVLRRTVPPMVNVTRSEASEGNITVTCRASGFYPWNITLSWRQDGVSLSHDTQQWGDVLPDGNGTYQTWVATRISGGSGGGSHLARGDDLTYSGGSGGGCYMEHSGNHSTHPVPSGK
0.55 | 19 | 0.526 | 18.1 | soluble MICA generated from pKK36 (loop 1 insert 3.1) (designed binder, From pKK34 (His6, Glu125); secreted by 293T cells; also called 1-3.1) HHHHHHEPHSLRYNLTVLSWDGSVQSGFLTEVHLDGQPFLRCDRQKCRAKPQGQWAEDVLGNKTWDRETRDLTGNGKDLRMTLAHIKDQKEGLHSLQEIRVCEIHEDNSTRSSQHFYYDGELFLSQNLETEEWTMPQSSRAQTLAMNVRNFLKEDAMKTKTHYHAMHADCLQELRRYLKSGVVLRRTVPPMVNVTSRGDHPRTQVTCRASGFYPWNITLSWRQDGVSLSHDTQQWGDVLPDGNGTYQTWVATRICQGEEQRFTCYMEHSGNHSTHPVPSGK
0.41 | 8.92 | 0.46 | 10 | soluble MICA generated from pKK44 (loop 1 insert extended 3.2sp) (designed binder, From pKK34 (His6, Glu125); secreted by 293T cells; also called 1-3.2sp) HHHHHHEPHSLRYNLTVLSWDGSVQSGFLTEVHLDGQPFLRCDRQKCRAKPQGQWAEDVLGNKTWDRETRDLTGNGKDLRMTLAHIKDQKEGLHSLQEIRVCEIHEDNSTRSSQHFYYDGELFLSQNLETEEWTMPQSSRAQTLAMNVRNFLKEDAMKTKTHYHAMHADCLQELRRYLKSGVVLRRTVPPMVNVTSGGSGGGSTSRGDHPRTQSGGSGGGVTCRASGFYPWNITLSWRQDGVSLSHDTQQWGDVLPDGNGTYQTWVATRICQGEEQRFTCYMEHSGNHSTHPVPSGK
0.294 | 9.99 | 0.276 | 9.38 | soluble MICA generated from pKK47 (loop 1 insert extended 5.3sp) (designed binder, From pKK34 (His6, Glu125); secreted by 293T cells; also called 1-5.3sp) HHHHHHEPHSLRYNLTVLSWDGSVQSGFLTEVHLDGQPFLRCDRQKCRAKPQGQWAEDVLGNKTWDRETRDLTGNGKDLRMTLAHIKDQKEGLHSLQEIRVCEIHEDNSTRSSQHFYYDGELFLSQNLETEEWTMPQSSRAQTLAMNVRNFLKEDAMKTKTHYHAMHADCLQELRRYLKSGVVLRRTVPPMVNVTSGGSGGGSHLARGDDLTYSGGSGGGVTCRASGFYPWNITLSWRQDGVSLSHDTQQWGDVLPDGNGTYQTWVATRICQGEEQRFTCYMEHSGNHSTHPVPSGK
0.393 | 9.51 | 0.41 | 9.92 | soluble MICA generated from pKK45 (loop 1 insert extended 3.3sp) (designed binder, From pKK34 (His6, Glu125); secreted by 293T cells; also called 1-3.3sp) HHHHHHEPHSLRYNLTVLSWDGSVQSGFLTEVHLDGQPFLRCDRQKCRAKPQGQWAEDVLGNKTWDRETRDLTGNGKDLRMTLAHIKDQKEGLHSLQEIRVCEIHEDNSTRSSQHFYYDGELFLSQNLETEEWTMPQSSRAQTLAMNVRNFLKEDAMKTKTHYHAMHADCLQELRRYLKSGVVLRRTVPPMVNVTSGGSGGGSRVPRGDSDLTSGGSGGGVTCRASGFYPWNITLSWRQDGVSLSHDTQQWGDVLPDGNGTYQTWVATRICQGEEQRFTCYMEHSGNHSTHPVPSGK
